Assay results from the RNAGym collection of RNA variant scans (doi:10.7554/elife.90254).

B1: LINE1-full (parent)
chain: UACGUAGGUGGUUUUCCCCUGAUAGUGCUAAGGGGGCCUGGAAGUUUGGACUGGGCAGAGCUCAACACAGCGUGGCAAAGUGGCUGUGGCUAGACUGCCUCUCUGGAUUCCUCGUCACUCAGCAGGGCAUCUCUGAGAGAAAUGCC

Variants of: B1
Assay: self-cleavage, relative activity (ratio to wild type); higher = more cleavage; in vitro, sequencing; the parent is a self-cleaving ribozyme
A65G A69G gave a self-cleavage of 0.
A79G U132A showed a self-cleavage of 1.25.
C37A A65G showed a self-cleavage of 0.01.
With U20C U52G the self-cleavage was 1.81.
For G7U A136G, the self-cleavage was 1.86.
Variant U102C A124C has a self-cleavage of 2.04.
Work on A59G U87C yielded a self-cleavage of 0.11.
For A57G, the self-cleavage was 0.88.
C90U U96A showed a self-cleavage of 0.06.
With A94U U134C the self-cleavage was 0.32.
Variant U9C U87C has a self-cleavage of 0.42.
For C37U U134C, the self-cleavage was 1.25.
In the case of U45C C51A, the self-cleavage is reported as 0.2.
For A69G G74A, the self-cleavage was 0.49.
With U14C C110A the self-cleavage was 1.33.
In the case of U132C A142C, the self-cleavage is reported as 1.51.
With U47A C61A the self-cleavage was 0.03.
Variant A107G G126U has a self-cleavage of 1.48.
Work on A42G G53A yielded a self-cleavage of 1.36.
G25U G114A gave a self-cleavage of 1.13.
In the case of A64G U96A, the self-cleavage is reported as 0.07.
With A57U G83A the self-cleavage was 0.03.
Variant U15C G35A has a self-cleavage of 1.41.
Work on U47C C63U yielded a self-cleavage of 0.37.
In the case of U52A U119C, the self-cleavage is reported as 1.48.
A2C A121G showed a self-cleavage of 0.95.
Work on G58C G72U yielded a self-cleavage of 0.02.
G82A A138U showed a self-cleavage of 1.9.
With U12C A94U the self-cleavage was 0.38.
Work on A50C U104A yielded a self-cleavage of 0.87.
With U39A U130C the self-cleavage was 1.5.
For U9C U62A, the self-cleavage was 0.14.
Work on A22C U81C yielded a self-cleavage of 1.04.
U12C U20C showed a self-cleavage of 1.24.
U13A C145U gave a self-cleavage of 1.26.
Variant A65U A129G has a self-cleavage of 0.38.
A6U U12A showed a self-cleavage of 0.84.
U47C U100A gave a self-cleavage of 1.51.
U15C G75A showed a self-cleavage of 1.28.
G7A U143C showed a self-cleavage of 1.29.
Variant A31G U100C has a self-cleavage of 1.29.
G11C G48U gave a self-cleavage of 1.25.
For U45C U85G, the self-cleavage was 0.26.
In the case of U15A A69U, the self-cleavage is reported as 0.05.
With C84U A129G the self-cleavage was 0.18.
U85A C98G showed a self-cleavage of 0.28.
U26A A124C gave a self-cleavage of 1.4.
Work on U39C U104A yielded a self-cleavage of 0.89.
In the case of U52A, the self-cleavage is reported as 1.34.
In the case of C37U U85A, the self-cleavage is reported as 0.05.
C19U U96C showed a self-cleavage of 0.18.
In the case of U47C U115C, the self-cleavage is reported as 2.06.
U52C A94G gave a self-cleavage of 0.24.
Variant U46A A77G has a self-cleavage of 2.14.
For U26G U91C, the self-cleavage was 0.44.
G74A U112C showed a self-cleavage of 0.66.
Variant U13C G33U has a self-cleavage of 1.64.
Variant A94G U130A has a self-cleavage of 0.34.
In the case of U81A, the self-cleavage is reported as 1.89.
In the case of U1G U46G, the self-cleavage is reported as 0.33.
In the case of U23C U109C, the self-cleavage is reported as 1.84.
Variant A2G U87A has a self-cleavage of 0.32.
For U73C G88U, the self-cleavage was 0.13.
With U9A U39C the self-cleavage was 0.25.
For U81A G88A, the self-cleavage was 0.06.
With U13C A43C the self-cleavage was 0.84.
Work on U62A A140G yielded a self-cleavage of 0.04.
Variant U52C C98A has a self-cleavage of 0.1.
U12C U62A gave a self-cleavage of 0.13.
For U9A U112A, the self-cleavage was 0.82.
U14C G58A gave a self-cleavage of 0.06.
Work on U29A U143C yielded a self-cleavage of 1.16.
For G33A U143A, the self-cleavage was 1.07.
Variant U15C G125U has a self-cleavage of 0.82.
For U39C G122U, the self-cleavage was 1.53.
U26C U134C gave a self-cleavage of 0.83.
With U46C U100C the self-cleavage was 1.89.
With A67G C120U the self-cleavage was 0.45.
In the case of A141C U143C, the self-cleavage is reported as 1.67.
With C71A A117G the self-cleavage was 0.15.
U115A A140G gave a self-cleavage of 1.27.
In the case of G83C A117G, the self-cleavage is reported as 0.76.
Work on G44C A64G yielded a self-cleavage of 0.24.
Work on G125U A136U yielded a self-cleavage of 1.8.
A31G A117U gave a self-cleavage of 1.
With U46A A79U the self-cleavage was 2.16.
Variant G122U C123U has a self-cleavage of 0.8.
In the case of U20A U87C, the self-cleavage is reported as 0.31.
U45A A136U gave a self-cleavage of 1.9.
For U15C A142G, the self-cleavage was 1.41.
In the case of U13A A30U, the self-cleavage is reported as 0.7.
In the case of A31U G58A, the self-cleavage is reported as 0.05.
U46G A69G gave a self-cleavage of 0.
For G7C U73C, the self-cleavage was 0.74.
In the case of G11A A141U, the self-cleavage is reported as 1.05.
Variant U9C C128U has a self-cleavage of 1.52.
U45C C128U showed a self-cleavage of 1.32.
Variant U45A U96C has a self-cleavage of 0.13.
U112C A117C showed a self-cleavage of 1.38.
Work on G33U U85C yielded a self-cleavage of 0.06.
With U29C U134C the self-cleavage was 1.37.
G60A U119A gave a self-cleavage of 0.11.
In the case of U12G C56U, the self-cleavage is reported as 0.22.
Work on U12A U102C yielded a self-cleavage of 1.42.
In the case of U20C A94U, the self-cleavage is reported as 0.28.
With A57U U73A the self-cleavage was 0.06.
Work on A22U A57U yielded a self-cleavage of 0.12.
G25U C123A gave a self-cleavage of 0.95.
Work on G53A A69U yielded a self-cleavage of 0.07.
With C116U A138U the self-cleavage was 1.41.
For C76U G82A, the self-cleavage was 2.8.
Work on A24G A121C yielded a self-cleavage of 2.3.
For A78C, the self-cleavage was 2.41.
Variant A69G U130A has a self-cleavage of 0.39.
Work on U104C A136U yielded a self-cleavage of 1.91.
For U47C C118A, the self-cleavage was 0.46.
U13C G40A showed a self-cleavage of 0.91.
In the case of U62C G70A, the self-cleavage is reported as 0.01.
In the case of G127A U134G, the self-cleavage is reported as 1.1.
With G48C U91C the self-cleavage was 1.05.
For U15A U91C, the self-cleavage was 0.44.
U47G G135A showed a self-cleavage of 0.79.
Variant A129U A136U has a self-cleavage of 1.42.
Variant U96C G137U has a self-cleavage of 0.06.
In the case of U20G A136G, the self-cleavage is reported as 1.03.
U85A U143A showed a self-cleavage of 0.08.
Variant U26A U85C has a self-cleavage of 0.17.
G44U U130A gave a self-cleavage of 1.99.
Variant U9C C28A has a self-cleavage of 1.16.
In the case of G7A A30U, the self-cleavage is reported as 0.92.
G35U A43U showed a self-cleavage of 1.33.
G32A U102A gave a self-cleavage of 0.63.
With A50C C116U the self-cleavage was 1.34.
Work on G40U A59G yielded a self-cleavage of 0.05.
Work on U91C C128U yielded a self-cleavage of 1.
In the case of U15C C56A, the self-cleavage is reported as 0.04.
Variant A59U A67G has a self-cleavage of 0.39.
With C103U U130C the self-cleavage was 0.84.
Work on G125U U134A yielded a self-cleavage of 1.87.
U20A G25A showed a self-cleavage of 0.37.
Variant A121G A141G has a self-cleavage of 1.65.
Variant U9C G36U has a self-cleavage of 2.08.
G7C U13C showed a self-cleavage of 2.07.
Work on A6G G83A yielded a self-cleavage of 0.26.
G25A G54U gave a self-cleavage of 0.45.
U73A U81G gave a self-cleavage of 1.85.
Variant G83A U85C has a self-cleavage of 0.09.
For A79U U91A, the self-cleavage was 0.58.
Work on G97A A142G yielded a self-cleavage of 0.02.
U73A A77U showed a self-cleavage of 0.69.
With A67U A121G the self-cleavage was 0.15.
A42G A43U gave a self-cleavage of 1.56.
Variant A64G A140U has a self-cleavage of 0.3.
Work on U14A U143C yielded a self-cleavage of 1.
With U12C C145G the self-cleavage was 1.06.
In the case of G35U A142G, the self-cleavage is reported as 1.56.
In the case of A79G U115C, the self-cleavage is reported as 1.32.
Variant U29C C145U has a self-cleavage of 1.28.
U20G U29A showed a self-cleavage of 0.8.
For G36A A43G, the self-cleavage was 1.07.
U12G G33A showed a self-cleavage of 1.47.
G54A A65G showed a self-cleavage of 0.02.
With C101A A107G the self-cleavage was 1.57.
With U20C A142C the self-cleavage was 1.88.
For U9C U23C, the self-cleavage was 1.68.
A57U U115C showed a self-cleavage of 0.18.
G135U A140G showed a self-cleavage of 1.08.
